Reference: US20180267027A1, “FLUORESCENT BIOSENSOR FOR […] ASSAY” (The Regents of the University of California, priority 2015, published 2018)

T1: protein lysine MTase SET7/9 (Homo sapiens, UniProt Q8WTS6)
T1 construct: purchased New England Biolabs Inc (Ipswich, Mass.)
T1 sequence (Q8WTS6 1-366): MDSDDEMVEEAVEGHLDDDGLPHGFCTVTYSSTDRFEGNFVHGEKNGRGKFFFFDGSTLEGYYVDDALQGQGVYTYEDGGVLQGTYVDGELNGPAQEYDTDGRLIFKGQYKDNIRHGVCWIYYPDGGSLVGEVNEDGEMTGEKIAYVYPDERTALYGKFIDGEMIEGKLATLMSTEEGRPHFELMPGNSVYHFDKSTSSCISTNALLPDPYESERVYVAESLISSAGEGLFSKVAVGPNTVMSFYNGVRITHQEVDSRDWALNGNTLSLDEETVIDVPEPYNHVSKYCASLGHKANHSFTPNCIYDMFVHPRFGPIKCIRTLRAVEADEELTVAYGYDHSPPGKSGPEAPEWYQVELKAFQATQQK

T2: SET7/9 (Homo sapiens, UniProt Q8WTS6)
T2 construct: purchased New England Biolabs Inc (Ipswich, Mass.)
T2 sequence (Q8WTS6 1-366): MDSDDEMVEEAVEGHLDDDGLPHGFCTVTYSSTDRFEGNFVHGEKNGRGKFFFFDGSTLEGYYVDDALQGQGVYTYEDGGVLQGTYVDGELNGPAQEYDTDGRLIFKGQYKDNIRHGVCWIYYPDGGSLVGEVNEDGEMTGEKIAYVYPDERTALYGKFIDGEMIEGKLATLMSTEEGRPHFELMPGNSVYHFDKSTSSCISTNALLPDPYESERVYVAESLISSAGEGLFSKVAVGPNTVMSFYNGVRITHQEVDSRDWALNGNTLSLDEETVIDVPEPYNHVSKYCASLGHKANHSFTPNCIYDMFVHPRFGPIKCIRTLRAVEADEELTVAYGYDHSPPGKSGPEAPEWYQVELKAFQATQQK

B1: cpSpinach2: circular permutant of the Spinach2 aptamer, SEQ ID NO: 93 (nucleic acid)
chain: GCAGCCTACTTGTTGAGTAGAGTGTGAGCTCCGTAACTAGTTACATCGCAAGATGTAACTGAATGAAATGGTGAAGGACGGGTCCAGTAGGCTGC
modifications: expressed or natural sequence
B2: Aeh1-4: SAH biosensor, SEQ ID NO: 44 (nucleic acid)
chain: CGCCCCGAGGAGCGCTGCAACAGGTTGTTGAGTAGAGTGTGAGCTCCGTAACTAGTTACATCGCAAGATGTAACTGAATGAAATGGTGAAGGACGGGTCCACCTGCCAGGCTCGGGGATGGCGCCCCATCGTTCCAACGGCGCTCAGCGAAA

Tests used:
E. coli BL21* cells = assay: In vivo fluorescence of RNA aptamers by flow cytometry; type: cell-based; conditions: 100 μM DFHBI
Procedure: To compare the fluorescence of Spinach2 and cpSpinach2 in live cells, pET31b plasmids encoding the RNA aptamers in a tRNA scaffold were transformed into E. coli BL21* cells. Following IPTG induction of transcription, cells were incubated with DFHBI and fluorescence was quantitated by flow cytometry. The mean cellular fluorescence was measured as a function of increasing DFHBI concentration in the media, in order to determine the optimal conditions for aptamer fluorescence. Unexpectedly, full saturation of fluorescence was not observed, even when E. coli cells were incubated in media containing up to 800 μM DFHBI (FIG. 5). However, the non-specific fluorescence signal increased when DFHBI concentration exceeded 100 μM. Thus, to balance higher fluorescence activation and lower non-specific background, a concentration of 100 μM was adopted for further experiments. Under these conditions, cellular fluorescence activation for Spinach2 and cpSpinach2 was on average 34 and 22-fold over background, respectively (FIG. 6). Thus, cpSpinach2 is a functional alternative to Spinach2. Although it currently performs slightly poorer in terms of fluorescence activation in live cells, improvements are likely possible through directed mutagenesis for higher thermal stability, improved folding efficiency and less Mg^2+ dependency. […]

[1] = test system: E. coli BL21* wild-type and ΔMTAN cells; assay: Live cell detection of SAH accumulation, wild-type versus MTAN knockout, flow cytometry; type: cell-based
Procedure: A Targetron® Gene Knockout System (Sigma-Aldrich) was used to knock out the MTAN gene from E. coli BL21*, following manufacturer protocols.
Preparation of cell samples for flow cytometry was carried out by inoculating 2 mL of auto-induction media/Carb (F. Studier, Protein Expression and Purification 2005, 41, 207-234) with E. coli BL21* cells from colonies grown on an LB/Carb culture plate, containing pET31b plasmids encoding RNA aptamers. […] Cells were then grown aerobically overnight to saturation (0D600 varied from 5 to 10) and diluted to OD600˜0.01-0.05 in M9 minimal media (pH ˜6.0) with 100 μM DFHBI-1T. Cellular fluorescence was measured for 30,000 cells using a Life Technologies Attune N×T Acoustic Focusing Cytometer.

E. coli cells = assay: RNA stability in E. coli, cpSpinach2 fluorescence in M9 minimal media; type: cell-based; conditions: M9 minimal media without inducers, monitored for 4 h
Procedure: Fluorescence of cpSpinach2-expressing E. coli cells grown 16 hrs in auto-induction media, then pelleted and re-suspended in M9 minimal media without RNA transcription inducers.
RNA stability in E. coli: For the time-course experiment shown in FIG. 4D, E. coli cells from overnight culture (16 h post-inoculation and induction) were pelleted and re-suspended in M9 minimal media without transcriptional inducers (lactose). To analyze the stability of RNA levels under these conditions, E. coli cells expressing cpSpinach2 were processed using the same procedures and fluorescence was monitored for 4 h. Fluorescence readings remained stable for up to 3 h in M9 minimal media. Therefore, we expect that the related biosensor levels would be stable in the same time-frame, so the fluorescence change shown in FIG. 4D reflects the dynamic change in SAH levels.

[2] = In vitro fluorescence assays of SAH biosensors (turn-on, ligand selectivity); type: biochemical
Procedure: Other conditions, including temperature, concentrations of MgCl2, DFHBI, ligand or RNA, were varied in different experiments and are indicated in the figures. The RNA was renatured in buffer at 70° C. for 3 min and cooled to ambient temperature for 5 min prior to addition to the reaction solution. DFHBI was added to a solution containing buffer and ligand, and then RNA was added at the end before fluorescence measurement. Binding reactions were performed in 100 μL volumes and were incubated at the indicated temperature in a Corning Costar 3915 96-well black plate until equilibrium was reached, which in some cases takes 30 to 60 minutes. The fluorescence emission was measured using a Molecular Devices SpectraMax Paradigm Multi-Mode detection platform plate reader (Sunnyvale, Calif.) with the following instrument parameters: 448 nm excitation, 506 nm emission.

[3] = molecular target: T1, protein lysine MTase SET7/9; assay: Protein MTase SET7/9 activity assay with SAH biosensor; type: biochemical
Procedure: To initiate the enzyme reaction, 5 μL of H3 peptide substrate (N′-[…]-LAGGKKC-C′) (SEQ ID NO:132) was added to 5 μL of 2×enzyme reaction solution containing SET7/9, SAM, and NEB HMT buffer. Generally, final concentrations are 50 μM H3 peptide, 0.1 U/μL SET7/9, 25 μM SAM, and lx NEB HMT buffer (50 mM Tris, pH 9.0, 5 mM MgCl2, and 4 mM DTT). The reaction solution was incubated at 37° C. for 2 hours to allow the enzyme reaction to proceed.
To initiate the fluorescent biosensor reaction, 10 μL of the enzyme reaction was added to 90 μL of biosensor reaction solution containing renatured RNA, DFHBI, and buffer. […] For the SAH control, SAH was added to a final concentration of 0.5 μM in place of the enzyme reaction. In vitro fluorescence assays were conducted as described above.

SET7/9 = molecular target: T2, SET7/9; assay: High-throughput screening (HTS) assay of SET7/9 activity and inhibition, Z′ score; type: biochemical; conditions: 384-well plate, 16 replicates
Procedure: For HTS experiments, samples were dispensed into a Grenier 781077 384-well flat bottom black plate using an Eppendorf Repeater […] pipetter to dispense reaction components. Z' scores were calculated from 16 well replicates in the 384-well plate. For the HTS SET7/9 activity assay, 3 μL of H3 peptide or water was added to 9 μL of reaction solution containing SET7/9 MTase, SAM, and NEB HMT Reaction Buffer in each well. Final concentrations are: 0.25 U/10 μL SET7/9, 25 μM SAM, 50 μM H3 peptide and 1×NEB HMT Reaction Buffer (50 mM Tris, pH 9.0, 5 mM MgCl2, and 4 mM DTT). After 30 min incubation at 37° C., to initiate the fluorescent biosensor reaction, 18 μL of biosensor reaction solution containing renatured RNA, DFHBI, and buffer was added to each well. […] In vitro fluorescence assays were conducted as described above. For the HTS SET7/9 inhibition assay, 4.5 μL of sinefungin or water was added to 8 μL of reaction solution containing SET7/9 MTase, and NEB HMT Reaction Buffer in each well. After 15 minutes incubation at 37° C., methylation reaction was initiated by adding 2.5 μL solution containing both SAM and H3 peptide. Final concentrations are: 0.25 U/10 μL SET7/9, 25 μM SAM, 50 μM H3 peptide, 300 μM sinefungin and 1×NEB HMT Reaction Buffer (50 mM Tris, pH 9.0, 5 mM MgCl2, and 4 mM DTT). After 30 min incubation at 37° C., to initiate the fluorescent biosensor reaction, 15 μL of biosensor reaction solution containing renatured RNA, DFHBI, and buffer was added to each well. […] In vitro fluorescence assays were conducted as described above.

Molecule | cellular fluorescence activation over background (E. coli BL21* cells) | fold change in fluorescence between wild-type and MTAN knockout strain 2 ([1]; E. coli BL21* MTAN knockout strain 2) | fluorescence signal in ΔMTAN versus wild-type cells ([1]; E. coli BL21*, flow cytometry) | time fluorescence readings remained stable (E. coli cells) | fluorescence response to SAH at low magnesium ([2]; 3 mM magnesium) | fluorescence turn-on ([2]; 37° C., 10 mM Mg^2+) | change of fluorescence turn-on with increasing magnesium ([2]; magnesium from 1 to 20 mM) | fluorescence response to SET7/9 activity [3] | Z′ score, substrate screen (SET7/9) | Z′ score, inhibitor screen (SET7/9; 300 μM sinefungin)
B1 | 22 fold | 1.4 × | no significant difference in signal | up to 3 h | – | – | – | – | – | –
B2 | – | – | – | – | decreased fluorescence turn-on | around 5 fold | marked improvement in fluorescence turn-on | displayed a fluorescence response to SET7/9 activity | 0.74 | 0.44
